The record followed here is patent US20210040189A1 (Amgen, published 2021).

Substitutions are numbered along the chain they refer to.

Sequences and labels used below:
B1: 5.25.1 (antibody, V domains shown)
VH: QVQLVQSGAEVKKPGASVKVSCKASGYTFTSYDINWVRQATGQGLEWMGWMDPNSGNTGYAQKFQGRVTMTRNTSISTAFMELSSLRSEDTAVYYCARTDYFYFGMDVWGQGTTVTVSS
VL: DIQMTQSPSSLSASVGDRVTITCQASQDISKDLNWYQQKPGKAPRLLIYDASNLETGVPSRFSGSGSGTDFTFTISSLQPEDIATFYCQQYDHLPIAFGQGTRLEIK
notes: Fully human hybridoma IgG, kappa (Vk)
B2: 5.80.1 (antibody, V domains shown)
VH: EVQLVQSGAEVKKPGESLKISCKGSGYSFTSYWIGWVRQMPGKGLEWMGIIYPGDSDTRYSPSFQGQVTISADKSISTAYLQWSSLTASDTAMYYCARQGESFDYWGQGTLVTVSS
VL: QSVLTQPPSVSGAPGQRVTISCTGSSSNIGADYDVHWYQQLPGTAPKLLIYDYSNRPSGVPDRFSGSKSGTSASLAITGLQAEDEADYYCQSYDNSLSGYVVFGGGTKLTVL
notes: Fully human hybridoma IgG, lambda (Vl)
B3: 5.32.1 (antibody, V domains shown)
VH: QVQLVQSGAEVKKPGASVKVSCKASGFTFTSYDISWVRQATGLGLEWMGWMNPSSGYTGYAQNFQGRVTMTWNTSISTVYMELSSLRSEDTAVYYCARTDYYYYGMDVWGRGTTVTVSS
VL: B1 VL with R45K, F86Y, H93D, A97T
notes: as for B1
B4: 6.116.6 (antibody, V domains shown)
VH: QVQLVESGGGVVQPGRSLRLSCAASGFTFSGYGMHWVRQAPGKGLEWVAVISYDGNDKYYADSVKGRFTISRDNAKNTLYLQMNSLRAEDTAVYYCARELRVLWGQGTLVTVSS
VL: DIVMTQTPLSLSVTPGQPASISCKSGQSLLHNDGKTYLYWYLQKPGQPPQFLIYEVSNRFSRVPDRFSGSGSGTDFTLKISRVEAEDVGIYYCMQSIQLPWTFGQGTQVEIK
notes: Fully human IgG, kappa (Vk)
B5: 2.40.1 (antibody, V domains shown)
VH: QVQLVESGGGVVQPGRSLRLSCAASGFTFSSYGMHWVRQAPGKGLGWVAVISYDGSDKYYADSVKGRFTISRDNSKNTLYLQMNSLRAEDTAVYYCARDLVDTAMPWGQGTTVTVSS
VL: B4 VL with T7S, G26S, N32S, F51L, R62G, I90V, L99V, Q108K
notes: as for B1
B6: 6.37.5 (antibody, V domains shown)
VH: B4 VH
VL: B4 VL with N32S, K79R
notes: Fully human IgG, kappa (Vk)

In the first test the target is T1, T4 (human).
T1 construct: also called tryptic D1 peptide T4
T1 chain: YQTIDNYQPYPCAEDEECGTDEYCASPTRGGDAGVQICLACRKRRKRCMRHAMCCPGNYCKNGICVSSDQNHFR
Briefly: BiaCore, competition with surface-bound DKK1. (In SPR one partner is held on a chip, and binding of the other changes the refractive index at the surface.)
With B1, the binding result is reported as “binds”.

A further test deals with T2, human DKK1 (human, UniProt O94907 32-266).
T2 construct: also called huDKK1; hDKK1
T2 sequence: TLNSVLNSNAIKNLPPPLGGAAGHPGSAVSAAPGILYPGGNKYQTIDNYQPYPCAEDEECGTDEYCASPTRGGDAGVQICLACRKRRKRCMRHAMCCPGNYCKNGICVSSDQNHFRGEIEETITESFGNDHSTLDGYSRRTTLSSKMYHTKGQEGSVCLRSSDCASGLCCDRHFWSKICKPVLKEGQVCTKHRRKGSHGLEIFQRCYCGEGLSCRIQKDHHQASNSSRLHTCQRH
As to the kind of experiment: KinExA 3000 equilibrium binding in solution. The method, then:
(§1) Accordingly, the affinity of several of these antibodies to DKK1 was further assessed by an equilibrium binding analysis using the more sensitive KinExAtm 3000. For these measurements, Reacti-Gel 6× beads (Pierce, Rockford, Ill.) were pre-coated with human, cynomologous or mouse DKK1 and blocked with BSA. One hundred pM, 300 pM, or 1000 pM of the antibody was mixed with various concentrations of human, mouse or cyno DKK1, ranging in concentration from 1 pM to 50 nM, and equilibrated at room temperature for 8 hours. The mixtures were then passed over the DKK1-coated beads. The amount of bead-bound anti-DKK1 antibody was quantified using goat anti-human-IgG antibody labeled with a fluorescent tag (Cy5; Jackson Immuno Research, West Grove, Pa.). The amount of fluorescent signal measured was proportional to the concentration of free anti-DKK1 antibody in each reaction mixture at equilibrium. The dissociation equilibrium constant (Kd) was obtained from nonlinear regression of the competition curves using a dual-curve one-site homogeneous binding model using the KinExA software.
For orientation: A kinetic exclusion assay measures how much of one partner remains free in solution.
As a reminder, the Kd is the equilibrium constant for the complex coming apart. Low values mean higher affinity, high ones lower affinity. Consider B2, for which the Kd was determined as 60 pM.

In turn, B1 displayed a Kd of 3 pM. This Kd is about 20-fold lower than that of the molecule before.

On to B3, for which the Kd is 3 pM.

Molecule B4 registered a Kd of 25 pM.

B5 returned a Kd of 220 pM. This Kd is about 8.8-fold higher than that of the molecule before.

With B6, the Kd was 30 pM.

Another test concerns the target T3, cynomologous DKK1 (cynomolgus monkey, UniProt O94907 32-266 (human entry), limits assumed).
T3 construct: also called cyno DKK1
T3 chain: T2 sequence with H114N, T150S, S166T, D171A
As to the kind of experiment: KinExA 3000 equilibrium binding in solution. On the procedure: as §1
B4 showed a Kd of 40 pM.

The molecule B5 had a Kd of 220 pM.

Consider B6, for which the Kd turned out to be 35 pM.

A further test addresses T4, mouse DKK1 (mouse, UniProt O54908 32-272).
T4 construct: also called murine DKK1
T4 sequence: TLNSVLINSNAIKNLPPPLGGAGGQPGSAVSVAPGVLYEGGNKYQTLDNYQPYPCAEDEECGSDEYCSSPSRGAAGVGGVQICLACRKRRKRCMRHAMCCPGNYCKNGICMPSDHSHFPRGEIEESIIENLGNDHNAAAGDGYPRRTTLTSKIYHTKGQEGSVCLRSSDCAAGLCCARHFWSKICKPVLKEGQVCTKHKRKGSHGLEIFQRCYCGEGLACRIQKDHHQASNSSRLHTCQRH
As to the kind of experiment: KinExA 3000 equilibrium binding in solution. The method, then:
as §1
B2: the Kd turned out to be 25 pM.

In the case of B1, the affinity, expressed as Kd, was 150 pM.

In turn, B3 came in with a Kd of 40 pM.

Turning to B4, the Kd amounted to 40 pM.

Consider B5, for which the Kd was found to be 480 pM.

Consider B6, for which binding was characterised by a dissociation constant (Kd) of 50 pM.

For the next test, the target named is T2, human DKK1. Briefly: cell-based or functional assay.
Regarding B2, the “ST2 EC50” value came out at 5030 pM and the “TCF EC50” value turned out to be 3220 pM.

Take B1: the “ST2 EC50” value came to 5960 pM and the “TCF EC50” value amounted to 1880 pM.

B3: the “ST2 EC50” value was 3480 pM and the “TCF EC50” value stood at 1010 pM.

On to B4, for which the “ST2 EC50” value was found to be 2770 pM and the “TCF EC50” value is 4690 pM.

Take B5: the “ST2 EC50” value was 2470 pM and the “TCF EC50” value is 1280 pM.

As for B6, the “ST2 EC50” value was 3980 pM and the “TCF EC50” value was 6570 pM.

A further test deals with T2, human DKK1. Briefly: BiaCore 2000.
Text: BiaCore allowed us to determine the kd of the selected antibodies.
In general, koff refers to the rate constant with which the complex falls apart. Turning to B2, the koff was under 2e-05 s⁻¹.

For B1, the koff is under 2e-05 s⁻¹.

B3 yielded a koff of 0.000191 s⁻¹.

On to B4, for which the koff was 2e-05 s⁻¹. Against the preceding molecule, the koff is about 9.5-fold lower.

The molecule B5 registered a koff of 6.27e-05 s⁻¹. Compared with the last molecule, the koff is about 3.1-fold higher.

B6 came in with a koff of 4e-05 s⁻¹. Compared with the last molecule, the koff is about 1.6-fold lower.

The next test concerns the target T5, T2 (human).
T5 construct: Five peptides held together by the five disulfide bonds of D1; from trypsin digestion of HuDKK1 alone; also called tryptic D1 fragment T2
T5 chain 1: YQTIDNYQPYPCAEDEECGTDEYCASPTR
T5 chain 2: GGDAGVQICLACR
T5 chain 3: CMR
T5 chain 4: HAMCCPGNYCK
T5 chain 5: NGICVSSDQNHFR
As to the kind of experiment: BiaCore.
With B1, the binding result is listed as “no binding”.

A further test concerns the target T6, AspN1 (human).
T6 construct: Two peptides held together by five disulfide bonds in D1
T6 chain 1: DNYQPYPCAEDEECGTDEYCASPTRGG
T6 chain 2: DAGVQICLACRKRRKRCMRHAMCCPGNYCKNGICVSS
Briefly: BiaCore.
For the molecule B1, the binding result was “binds”.

A further test deals with T7, T3 (human).
T7 construct: a separate HPLC peak; also called tryptic D1 fragment T3
T7 chain 1: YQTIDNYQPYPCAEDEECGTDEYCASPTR
T7 chain 2: GGDAGVQICLACR
T7 chain 3: CMR
T7 chain 4: HAMCCPGNYCK
T7 chain 5: NGICVSSDQNHFR
As to the kind of experiment: BiaCore.
As to B1, the binding result is “no binding”.

For the next test, the target named is T8, AspN2 (human).
T8 construct: a separate HPLC peak
T8 chain 1: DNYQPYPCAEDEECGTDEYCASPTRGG
T8 chain 2: T6 chain 2
Briefly: BiaCore.
B1: the binding result is given as “binds”.

The target in a further test is T9, CNBr1 (human, UniProt O94907 207-266).
T9 construct: Two peptides held together by 5 disulfide bonds; also called CNBr fragment of hDKK1 representing disulfide domain D2; not shown: added C-terminal flag peptide (positions 267-274)
T9 sequence 1: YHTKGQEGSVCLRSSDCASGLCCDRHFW
T9 sequence 2: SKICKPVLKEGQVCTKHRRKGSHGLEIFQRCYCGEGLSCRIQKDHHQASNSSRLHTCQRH
As to the kind of experiment: BiaCore.
Consider B1, for which the binding result is reported as “no binding”.

The target in a further test is T10, huDkk4 (human, UniProt Q9UBT3 19-224, limits assumed).
T10 sequence (looked up): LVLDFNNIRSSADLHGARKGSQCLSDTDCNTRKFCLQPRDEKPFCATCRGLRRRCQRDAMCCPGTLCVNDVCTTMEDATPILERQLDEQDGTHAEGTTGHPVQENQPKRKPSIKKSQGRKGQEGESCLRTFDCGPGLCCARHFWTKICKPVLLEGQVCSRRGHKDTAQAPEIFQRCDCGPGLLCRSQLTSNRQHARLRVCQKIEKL
As to the kind of experiment: BiaCore.
As for B1, the binding result is listed as “no binding”.

Turning to B3, the binding result is on record as “no binding”.
